# Laboratory results taken from PMC9482650, “Quantitative fragmentomics allow affinity mapping of interactomes” (Nature Communications, 2022).
# T1: RHPN1, Q8TCX5
# T1 sequence (Q8TCX5 508-602, limits assumed, looked up): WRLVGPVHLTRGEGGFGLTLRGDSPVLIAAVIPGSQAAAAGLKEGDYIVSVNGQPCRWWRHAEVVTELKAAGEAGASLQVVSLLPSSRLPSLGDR
# T2: MPDZ_12, O75970
# T2 sequence (O75970 1857-1958, limits assumed, looked up): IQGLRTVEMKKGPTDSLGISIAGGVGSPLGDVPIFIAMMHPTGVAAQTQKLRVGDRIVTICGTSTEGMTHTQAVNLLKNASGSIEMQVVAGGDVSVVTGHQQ
# T3: DFNB31_1, Q9P202
# T3 sequence (Q9P202 135-233, limits assumed, looked up): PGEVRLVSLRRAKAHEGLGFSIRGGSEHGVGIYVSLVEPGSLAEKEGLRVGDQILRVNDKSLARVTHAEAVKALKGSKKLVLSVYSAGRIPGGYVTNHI
# T4: LRRC7, Q96NW7
# T4 sequence (Q96NW7 1440-1537, limits assumed, looked up): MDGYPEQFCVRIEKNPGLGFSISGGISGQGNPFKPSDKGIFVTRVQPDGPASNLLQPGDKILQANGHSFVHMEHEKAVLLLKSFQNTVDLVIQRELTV
# T5: TJP3_3, O95049
# T5 sequence (O95049 375-456, limits assumed, looked up): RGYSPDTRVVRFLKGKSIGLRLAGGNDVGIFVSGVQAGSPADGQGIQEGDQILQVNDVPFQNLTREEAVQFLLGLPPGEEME
# T6: SHANK1, Q9Y566
# T6 sequence (Q9Y566 658-767, limits assumed, looked up): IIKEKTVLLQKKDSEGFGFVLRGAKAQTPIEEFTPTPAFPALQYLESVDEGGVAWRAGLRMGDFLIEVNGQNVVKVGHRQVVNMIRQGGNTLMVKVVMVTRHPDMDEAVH
# T7: SYNJ2BP, P57105
# T7 sequence (P57105 8-110, limits assumed, looked up): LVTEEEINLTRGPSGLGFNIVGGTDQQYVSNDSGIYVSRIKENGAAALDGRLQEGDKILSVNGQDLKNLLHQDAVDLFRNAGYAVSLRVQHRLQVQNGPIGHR
# T8: SNTG2, Q9NY99
# T8 sequence (Q9NY99 68-166, limits assumed, looked up): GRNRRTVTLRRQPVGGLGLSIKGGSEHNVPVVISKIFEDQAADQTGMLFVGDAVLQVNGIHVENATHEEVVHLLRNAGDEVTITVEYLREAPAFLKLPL
# T9: LIN7C, Q9NUP9
# T9 sequence (Q9NUP9 88-185, limits assumed, looked up): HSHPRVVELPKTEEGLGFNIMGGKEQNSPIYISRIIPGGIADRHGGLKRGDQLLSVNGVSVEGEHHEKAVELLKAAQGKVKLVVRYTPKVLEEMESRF
# What was measured:
# Experiment in all cases: holdup assay
# Parameters in all cases: key: below the threshold = too weak to quantify, mostly under pKd 3.1 to 4
# LNX1_1, Q8TBB1 = target: LNX1_1, Q8TBB1
# LNX1_1, Q8TBB1, sequence (Q8TBB1 261-371): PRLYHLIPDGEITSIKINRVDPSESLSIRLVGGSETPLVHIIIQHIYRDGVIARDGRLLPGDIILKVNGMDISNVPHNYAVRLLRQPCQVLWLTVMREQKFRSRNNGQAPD
# PDZRN4_1, Q6ZMN7 = target: PDZRN4_1, Q6ZMN7
# PDZRN4_1, Q6ZMN7, sequence (Q6ZMN7 213-318): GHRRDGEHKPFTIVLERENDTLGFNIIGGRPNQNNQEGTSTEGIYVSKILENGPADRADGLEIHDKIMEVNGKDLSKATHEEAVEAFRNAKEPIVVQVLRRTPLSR
# HTRA2, O43464 = target: HTRA2, O43464
# HTRA2, O43464, sequence (O43464 355-458): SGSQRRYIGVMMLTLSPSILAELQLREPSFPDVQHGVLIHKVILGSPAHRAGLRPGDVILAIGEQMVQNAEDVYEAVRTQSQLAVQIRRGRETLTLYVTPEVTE
# MAGI3_2, Q5TCQ9 = target: MAGI3_2, Q5TCQ9
# MAGI3_2, Q5TCQ9, sequence (Q5TCQ9 398-503): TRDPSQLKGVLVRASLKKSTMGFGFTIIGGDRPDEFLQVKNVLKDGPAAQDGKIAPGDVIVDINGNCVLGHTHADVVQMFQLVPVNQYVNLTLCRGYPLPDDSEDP
# RHPN1, Q8TCX5 = target: T1, RHPN1, Q8TCX5
# MPDZ_12, O75970 = target: T2, MPDZ_12, O75970
# MAGI1_1, Q96QZ7 = target: MAGI1_1, Q96QZ7
# MAGI1_1, Q96QZ7, sequence (Q96QZ7 1-106): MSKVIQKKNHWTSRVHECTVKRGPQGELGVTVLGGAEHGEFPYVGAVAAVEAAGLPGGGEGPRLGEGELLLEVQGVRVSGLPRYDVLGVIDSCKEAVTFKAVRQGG
# Inadl_10, Q8NI35 = target: Inadl_10, Q8NI35
# Inadl_10, Q8NI35, sequence (Q8NI35 1673-1763): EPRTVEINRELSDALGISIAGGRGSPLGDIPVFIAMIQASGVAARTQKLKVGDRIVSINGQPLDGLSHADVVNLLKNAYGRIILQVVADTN
# FRMPD4, Q14CM0 = target: FRMPD4, Q14CM0
# FRMPD4, Q14CM0, sequence (Q14CM0 67-160): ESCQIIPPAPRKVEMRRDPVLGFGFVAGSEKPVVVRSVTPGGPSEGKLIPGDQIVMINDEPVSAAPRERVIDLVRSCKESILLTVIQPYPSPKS
# NHERF4_1, Q86UT5-2 = target: NHERF4_1, Q86UT5-2
# NHERF4_1, Q86UT5-2, sequence (Q86UT5 other isoform, or with tags, fused parts or gaps): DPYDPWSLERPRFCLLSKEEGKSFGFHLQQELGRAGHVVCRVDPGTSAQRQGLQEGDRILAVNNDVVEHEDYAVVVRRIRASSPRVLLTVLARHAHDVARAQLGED
# DLG1_2, Q12959 = target: DLG1_2, Q12959
# DLG1_2, Q12959, sequence (Q12959 314-412): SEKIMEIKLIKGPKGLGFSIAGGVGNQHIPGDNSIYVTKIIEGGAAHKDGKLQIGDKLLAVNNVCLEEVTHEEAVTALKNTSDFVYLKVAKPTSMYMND
# DFNB31_1, Q9P202 = target: T3, DFNB31_1, Q9P202
# LRRC7, Q96NW7 = target: T4, LRRC7, Q96NW7
# FRMPD3, Q5JV73 = target: FRMPD3, Q5JV73
# FRMPD3, Q5JV73, sequence (Q5JV73 12-100): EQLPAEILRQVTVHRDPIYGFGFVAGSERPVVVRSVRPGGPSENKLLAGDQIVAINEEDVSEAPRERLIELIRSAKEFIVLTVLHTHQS
# SCRIB_2, Q14160 = target: SCRIB_2, Q14160
# SCRIB_2, Q14160, sequence (Q14160 857-960): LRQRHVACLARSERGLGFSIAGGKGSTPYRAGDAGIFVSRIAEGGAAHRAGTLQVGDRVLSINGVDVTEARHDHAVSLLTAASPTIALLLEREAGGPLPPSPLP
# TJP3_3, O95049 = target: T5, TJP3_3, O95049
# DLG4_2, P78352 = target: DLG4_2, P78352
# DLG4_2, P78352, sequence (P78352 155-259): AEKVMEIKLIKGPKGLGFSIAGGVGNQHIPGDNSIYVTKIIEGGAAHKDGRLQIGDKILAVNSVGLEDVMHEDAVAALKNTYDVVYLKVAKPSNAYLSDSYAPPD
# Inadl_8, Q8NI35 = target: Inadl_8, Q8NI35
# Inadl_8, Q8NI35, sequence (Q8NI35 1425-1530): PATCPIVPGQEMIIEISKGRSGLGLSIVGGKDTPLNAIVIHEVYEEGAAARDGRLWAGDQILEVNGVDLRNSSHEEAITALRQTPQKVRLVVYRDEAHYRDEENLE
# FRMPD2_3, Q68DX3 = target: FRMPD2_3, Q68DX3
# FRMPD2_3, Q68DX3, sequence (Q68DX3 1073-1166): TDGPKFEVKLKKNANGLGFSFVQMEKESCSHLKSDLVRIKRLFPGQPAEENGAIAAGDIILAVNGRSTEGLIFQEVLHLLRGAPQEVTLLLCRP
# SHANK1, Q9Y566 = target: T6, SHANK1, Q9Y566
# FRMPD2_1, Q68DX3 = target: FRMPD2_1, Q68DX3
# FRMPD2_1, Q68DX3, sequence (Q68DX3 770-861): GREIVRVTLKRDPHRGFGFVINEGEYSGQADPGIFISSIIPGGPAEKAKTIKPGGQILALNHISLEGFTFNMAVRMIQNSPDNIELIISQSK
# PICK1, Q9NRD5 = target: PICK1, Q9NRD5
# PICK1, Q9NRD5, sequence (Q9NRD5 17-115): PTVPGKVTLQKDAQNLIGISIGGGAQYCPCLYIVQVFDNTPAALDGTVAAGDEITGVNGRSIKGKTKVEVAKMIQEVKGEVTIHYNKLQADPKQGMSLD
# SYNJ2BP, P57105 = target: T7, SYNJ2BP, P57105
# TJP2_1, Q9UDY2 = target: TJP2_1, Q9UDY2
# TJP2_1, Q9UDY2, sequence (Q9UDY2 24-128): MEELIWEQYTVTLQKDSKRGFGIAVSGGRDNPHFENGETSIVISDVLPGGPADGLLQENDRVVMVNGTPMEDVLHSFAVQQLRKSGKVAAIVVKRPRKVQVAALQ
# IL16_3, Q14005 = target: IL16_3, Q14005
# IL16_3, Q14005, sequence (Q14005 1107-1207): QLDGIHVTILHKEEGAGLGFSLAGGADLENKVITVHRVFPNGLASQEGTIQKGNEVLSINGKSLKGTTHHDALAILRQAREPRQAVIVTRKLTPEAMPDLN
# SNTG2, Q9NY99 = target: T8, SNTG2, Q9NY99
# LIN7C, Q9NUP9 = target: T9, LIN7C, Q9NUP9
# Inadl_5, Q8NI35 = target: Inadl_5, Q8NI35
# Inadl_5, Q8NI35, sequence (Q8NI35 673-780): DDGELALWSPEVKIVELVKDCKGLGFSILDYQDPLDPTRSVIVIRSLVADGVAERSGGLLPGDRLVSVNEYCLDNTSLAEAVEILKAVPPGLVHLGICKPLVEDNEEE
# [1] = plain residues with an end cap or a label only (N-terminal biotin on a linker: ahx)
# [2] = plain residues with an end cap or a label only (N-terminal biotin on a linker: (peg)3)
# [3] = plain residues with an end cap or a label only (N-terminal biotin on a linker: ado-ado)
binder,measurement,setting,value
"QDEKVKESYV [ABCA1, O95477]",pKd,"LNX1_1, Q8TBB1; [1]",4.38
same,pKd,"PDZRN4_1, Q6ZMN7; [1]",3.95
same,pKd,"HTRA2, O43464; [1]",below the threshold
same,pKd,"MAGI3_2, Q5TCQ9; [1]",5.14
same,pKd,"RHPN1, Q8TCX5; [1]",4.9
same,pKd,"MPDZ_12, O75970; [1]",below the threshold
same,pKd,"MAGI1_1, Q96QZ7; [1]",below the threshold
same,pKd,"Inadl_10, Q8NI35; [1]",below the threshold
same,pKd,"FRMPD4, Q14CM0; [1]",below the threshold
same,pKd,"NHERF4_1, Q86UT5-2; [1]",3.48
same,pKd,"DLG1_2, Q12959; [1]",5.09
same,pKd,"DFNB31_1, Q9P202; [1]",3.88
same,pKd,"LRRC7, Q96NW7; [1]",4.13
same,pKd,"FRMPD3, Q5JV73; [1]",below the threshold
same,pKd,"SCRIB_2, Q14160; [1]",4.61
same,pKd,"TJP3_3, O95049; [1]",below the threshold
same,pKd,"DLG4_2, P78352; [1]",5.25
same,pKd,"Inadl_8, Q8NI35; [1]",4.68
same,pKd,"FRMPD2_3, Q68DX3; [1]",3.9
same,pKd,"SHANK1, Q9Y566; [1]",below the threshold
same,pKd,"FRMPD2_1, Q68DX3; [1]",3.53
same,pKd,"PICK1, Q9NRD5; [1]",3.76
same,pKd,"SYNJ2BP, P57105; [1]",5.22
same,pKd,"TJP2_1, Q9UDY2; [1]",4.36
same,pKd,"IL16_3, Q14005; [1]",below the threshold
same,pKd,"SNTG2, Q9NY99; [1]",5.06
same,pKd,"LIN7C, Q9NUP9; [1]",4.59
same,pKd,"Inadl_5, Q8NI35; [1]",3.73
"RYEDTTLVEDTVL [WNV-NS5, Q9Q6P4]",pKd,"LNX1_1, Q8TBB1; [2]",3.74
same,pKd,"PDZRN4_1, Q6ZMN7; [2]",3.94
same,pKd,"HTRA2, O43464; [2]",below the threshold
same,pKd,"MAGI3_2, Q5TCQ9; [2]",3.5
same,pKd,"RHPN1, Q8TCX5; [2]",4.41
same,pKd,"MPDZ_12, O75970; [2]",below the threshold
same,pKd,"MAGI1_1, Q96QZ7; [2]",3.62
same,pKd,"Inadl_10, Q8NI35; [2]",below the threshold
same,pKd,"FRMPD4, Q14CM0; [2]",4.85
same,pKd,"NHERF4_1, Q86UT5-2; [2]",4.17
same,pKd,"DLG1_2, Q12959; [2]",3.77
same,pKd,"DFNB31_1, Q9P202; [2]",3.83
same,pKd,"LRRC7, Q96NW7; [2]",3.49
same,pKd,"FRMPD3, Q5JV73; [2]",3.88
same,pKd,"SCRIB_2, Q14160; [2]",below the threshold
same,pKd,"TJP3_3, O95049; [2]",below the threshold
same,pKd,"DLG4_2, P78352; [2]",3.7
same,pKd,"Inadl_8, Q8NI35; [2]",below the threshold
same,pKd,"FRMPD2_3, Q68DX3; [2]",below the threshold
same,pKd,"SHANK1, Q9Y566; [2]",4.77
same,pKd,"FRMPD2_1, Q68DX3; [2]",below the threshold
same,pKd,"PICK1, Q9NRD5; [2]",below the threshold
same,pKd,"SYNJ2BP, P57105; [2]",3.66
same,pKd,"TJP2_1, Q9UDY2; [2]",below the threshold
same,pKd,"IL16_3, Q14005; [2]",below the threshold
same,pKd,"SNTG2, Q9NY99; [2]",4
same,pKd,"LIN7C, Q9NUP9; [2]",below the threshold
same,pKd,"Inadl_5, Q8NI35; [2]",below the threshold
"NISYRRESAI [KCNJ4, P48050]",pKd,"LNX1_1, Q8TBB1; [3]",below the threshold
same,pKd,"PDZRN4_1, Q6ZMN7; [3]",4.25
same,pKd,"HTRA2, O43464; [3]",below the threshold
same,pKd,"MAGI3_2, Q5TCQ9; [3]",4.9
same,pKd,"RHPN1, Q8TCX5; [3]",below the threshold
same,pKd,"MPDZ_12, O75970; [3]",below the threshold
same,pKd,"MAGI1_1, Q96QZ7; [3]",below the threshold
same,pKd,"Inadl_10, Q8NI35; [3]",below the threshold
same,pKd,"FRMPD4, Q14CM0; [3]",below the threshold
same,pKd,"NHERF4_1, Q86UT5-2; [3]",3.48
same,pKd,"DLG1_2, Q12959; [3]",4.48
same,pKd,"DFNB31_1, Q9P202; [3]",4.29
same,pKd,"LRRC7, Q96NW7; [3]",below the threshold
same,pKd,"FRMPD3, Q5JV73; [3]",below the threshold
same,pKd,"SCRIB_2, Q14160; [3]",3.69
same,pKd,"TJP3_3, O95049; [3]",below the threshold
same,pKd,"DLG4_2, P78352; [3]",4.17
same,pKd,"Inadl_8, Q8NI35; [3]",below the threshold
same,pKd,"FRMPD2_3, Q68DX3; [3]",below the threshold
same,pKd,"SHANK1, Q9Y566; [3]",below the threshold
same,pKd,"FRMPD2_1, Q68DX3; [3]",below the threshold
same,pKd,"PICK1, Q9NRD5; [3]",below the threshold
same,pKd,"SYNJ2BP, P57105; [3]",4.84
same,pKd,"TJP2_1, Q9UDY2; [3]",below the threshold
same,pKd,"IL16_3, Q14005; [3]",below the threshold
same,pKd,"SNTG2, Q9NY99; [3]",below the threshold
same,pKd,"LIN7C, Q9NUP9; [3]",below the threshold
same,pKd,"Inadl_5, Q8NI35; [3]",below the threshold
"QPRTWLQSPV [RTKN, Q9BST9]",pKd,"LNX1_1, Q8TBB1; [1]",below the threshold
same,pKd,"PDZRN4_1, Q6ZMN7; [1]",below the threshold
same,pKd,"HTRA2, O43464; [1]",below the threshold
same,pKd,"MAGI3_2, Q5TCQ9; [1]",4.53
same,pKd,"RHPN1, Q8TCX5; [1]",3.7
same,pKd,"MPDZ_12, O75970; [1]",below the threshold
same,pKd,"MAGI1_1, Q96QZ7; [1]",below the threshold
same,pKd,"Inadl_10, Q8NI35; [1]",below the threshold
same,pKd,"FRMPD4, Q14CM0; [1]",below the threshold
same,pKd,"NHERF4_1, Q86UT5-2; [1]",below the threshold
same,pKd,"DLG1_2, Q12959; [1]",4.3
same,pKd,"DFNB31_1, Q9P202; [1]",4.35
same,pKd,"LRRC7, Q96NW7; [1]",3.73
same,pKd,"FRMPD3, Q5JV73; [1]",below the threshold
same,pKd,"SCRIB_2, Q14160; [1]",below the threshold
same,pKd,"TJP3_3, O95049; [1]",below the threshold
same,pKd,"DLG4_2, P78352; [1]",4.27
same,pKd,"Inadl_8, Q8NI35; [1]",4.89
same,pKd,"FRMPD2_3, Q68DX3; [1]",below the threshold
same,pKd,"SHANK1, Q9Y566; [1]",3.74
same,pKd,"FRMPD2_1, Q68DX3; [1]",below the threshold
same,pKd,"PICK1, Q9NRD5; [1]",below the threshold
same,pKd,"SYNJ2BP, P57105; [1]",5.2
same,pKd,"TJP2_1, Q9UDY2; [1]",below the threshold
same,pKd,"IL16_3, Q14005; [1]",below the threshold
same,pKd,"SNTG2, Q9NY99; [1]",below the threshold
same,pKd,"LIN7C, Q9NUP9; [1]",below the threshold
same,pKd,"Inadl_5, Q8NI35; [1]",below the threshold
